Reference: patent publication US8552166, “High-affinity nucleic acid aptamers against sclerostin protein” (The University of Hong Kong)

Biological target: Sclerostin (SOST) (Mus musculus, UniProt Q99P68 Q99P68:1-211)
Assay: ITC; PBS, 25 C; n=0.91, dH -10.9 kcal/mol, TdS -2.3 kcal/mol
Conditions: tags: GST fusion (pGEX-4T1, E. coli BL21(DE3)); parallel G4 (CD, Tm 75 C)
Procedure: Sclerostin-aptamer interaction was investigated by studying the thermodynamics of the interaction of aptamer Scl 2 with sclerostin by Isothermal Titration Calorimetry. In the upper panel of FIG. 7 the calorimetric titrations of the aptamers into sclerostin solution conducted at 25° C. An exothermic heat pulse was observed after each injection of aptamers into the protein solution. The binding stoichiometry was fitted using simple single site binding model. […] The dissociation constant for the interaction of aptamer Scl 2 with sclerostin is 500 nM that is a competitive value in DNA-protein interactions. In addition, the values of ΔH and ΔS reveal that the binding processes are enthalpically driven with a favorable enthalpy of reaction (ΔH) at 25° C. of −10.9 kcal/mol offset by an unfavorable entropy of reaction (TΔS=−2.3 kcal/mol).
For Isothermal Titration Calorimetry, equilibrium binding studies between anti-sclerostin aptamers and scleorstin are performed on MicroCal VP-ITC. In a typical ITC experiment, 15 μM GST-sclerostin or 20 μM GST was loaded into the cell with 200 μM aptamer or random sequence in the titrating syringe. GST-sclerostin and GST were dialyzed into the PBS buffer with a MWCO of 10,000. The titration experiments were performed at 25° C. with an initial 0.2 μl injection, followed by thirty 1.2 μl A injections. The spacing between injections was 200 s. […]

Sequence of Sclerostin (SOST) (Q99P68 whole entry, one chain of several): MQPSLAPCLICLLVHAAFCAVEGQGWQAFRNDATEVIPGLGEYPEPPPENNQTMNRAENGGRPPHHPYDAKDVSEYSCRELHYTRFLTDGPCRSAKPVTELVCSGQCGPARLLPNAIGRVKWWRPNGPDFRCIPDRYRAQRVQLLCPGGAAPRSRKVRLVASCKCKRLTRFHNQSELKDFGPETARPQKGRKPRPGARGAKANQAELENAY

Binder: TTGCGCGTTAATTGGGGGGGTGGGTGGGTT (ssDNA) [Scl 2]
- Kd: 500 nM
